Assay results as given in patent US20260008856A1, “METHODS OF TREATING DISEASE USING ANTI-IL1RAP ANTIBODIES AND ANTIBODY DRUG CONJUGATES” (Bluefin Biomedicine, Inc., priority 2022, published 2026).

Columns and labels:
H69 = assay: Flow cytometry binding to endogenous cell line H69; assay type: cell-based; parameters: key: (−): No binding; (+): Weak binding; (++): Moderate binding; (+++): Strong binding; details: primary antibody 1 ug/ml
Protocol: Staining for flow cytometry was performed in 1× cold PBS with 0.5% BSA. Primary antibodies (1 ug/ml) were incubated with live cells on ice for 30 minutes, after a brief wash, cells were incubated with Alexa Fluro® 488-conjugated anti-human IgG secondary antibody @1:1000 (709-546-149, Jackson ImmunoResearch). Acquisition of the data was performed on a MACSQuant® Flow Cytometers (Miltenyi Biotec) and analyzed with FlowJo software.

recombinant human IL1RAP = target: T1, recombinant human IL1RAP (Homo sapiens, UniProt Q9NPH3); assay: Binding competition binning on Octet; details: Protein A biosensors
T1 construct: MBP-IL1RAP(S21-T367)-; 8xHis (C); made in house; host or cells: CHO (ExpiCHO transient expression)
In short: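 Protein A biosensors loaded with first antibody (10 ug/mL, 5 min), blocked with irrelevant antibody (100 ug/mL, 5 min). Then exposed to recombinant human IL1RAP (1 min) and a second antibody (1 min). Octet interferometry signal increase indicates non-competing pairs; antibodies assigned to bins.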

IL-33 signaling = IL-33 signaling reporter cell assay (HEK-Blue IL-33 cells); assay type: cell-based; details: antibody 1-10 μg/ml, IL-33 0.5 ng/ml
Protocol: FIGS. 7A and 7B show blockage of IL-33 signaling by anti-IL1RAP antibodies. HEK-Blue IL-33 cells (Invivogen, CA) were harvested and plated in technical duplicates at a density of 50,000 cells per well in a 96-well plate. Antibodies, or a corresponding human IgG1 control antibody, was added to the wells in a serial dilution starting at 10 μg/ml (FIG. 7A), or a concentration of 1 and 10 μg/ml (FIG. 7B). After incubating cells with antibodies for 30 minutes, IL-33 was added to a final concentration of 0.5 ng/ml, and the plate was incubated overnight. 24 hours later, substrate was added to the supernatants, and samples were analyzed for absorbance at 620 nm. CBIgG1 (anti-hen egg lysozyme antibody, CrownBio™) was included as a negative control.
HEK-Blue IL-33 cells (Invivogen, CA) were harvested and plated in technical duplicates at a density of 50,000 cells per well in a 96-well plate. antibodies, or a corresponding human IgG1 control antibody was added to the wells in a concentration range of […]. After incubating cells with antibodies for 30 minutes, IL-33 was added to a final concentration of 0.5 ng/ml, and the plate was incubated overnight. To examine whether any of the antibodies were able to induce ST2 activation in the absence of IL-33, samples were incubated with 10 μg/mL antibody without addition of the ligand. The following day, substrate was added to the supernatants, and samples were analyzed for absorbance at 620 nm.

[1] = tested on: IL-6 secretion in human whole blood cultures stimulated with HKCA; assay: IL-6 production in human whole blood cultures stimulated with heat-killed Candida albicans; assay type: cell-based; details: 24 hours, 1 μg/ml alone, combination 1 μg/ml BFB759 + 0.5 μg/ml adalimumab
Description: Materials included Human peripheral blood drawn from 5 healthy donors. Materials also included Anti-human TNF alpha (Adalimumab Biosimilar), BioXCell cat #SIM0001, lot #8024221F1; Heat-killed Candida albicans (HKCA), InvivoGen cat #tlrl-hkca, lot #6292-44-02; RPMI 1640 with L-glutamine and HEPES, Corning cat #10-041-CM; and Human IL-6 DuoSet ELISA, R and D Systems cat #DY206-05. Blood was drawn into heparin tubes from healthy volunteers. Whole blood cultures comprised of whole blood diluted with plain RPMI 1640 medium were set up in sterile 5.0 ml polypropylene snap cap culture tubes. One of the following treatments were added for 1 hour prior to either being left unstimulated or receiving stimulation with 1.5×10^6 cells heat-killed Candida albicans: medium alone (cells alone), 1 μg/ml IgG1 isotype control antibody alone, 1 μg/ml BFB759 alone, 1 μg/ml adalimumab alone, or one of two combination treatments of 1 μg/ml IgG1 isotype control antibody+0.5 μg/ml adalimumab or 1 μg/ml BFB759+0.5 μg/ml adalimumab. The final volume of each culture was 1.0 ml. Cultures were incubated for 24 hours at 37° C./5% CO2. Supernatants harvested from each culture in duplicate were frozen at −80° C. until assayed in duplicate for IL-6 levels by ELISA.

B1: 37E10_15B5: human anti-IL1RAP antibody BFB759 (i.e., 37E10_15B5), VH SEQ ID NO: 64, VL SEQ ID NO: 68 (antibody, V domains shown)
VH: QVQLVESGGGVVQPGRSLRLSCAASGFTFRSHGMHWVRQAPGKGLEWVAVIWYDGSSEYYADSVKGRFTISRDNSKNTLYLQMNSLRAEDTAVYYCARENVYGSGWFFDYWGQGTLVTVSS
VL: EIVMTQSPATLSVSPGERASLSCRASQSVGSNLAWYQQRPGQAPRLLIFGASTRATGIPARFSGSRSGTEFTLTISSLQSEDFALYYCQQYNNWPPWTFGQGTKLEIK
binding to H69 by flow cytometry (H69): (−) | competition for binding, bin (2) (recombinant human IL1RAP): competed with each other | inhibition of IL-33 signaling (IL-33 signaling): partially inhibit | inhibition of IL-6 secretion [1]: inhibit IL-6 secretion
